This passage reports peptide concentration results from patent publication US20030091983A1.

The target in the assay is synthetic HA 11 A-beta (1-40) peptide (human). The assay can be described thus: sandwich ELISA, anti-HA 11 capture, detection with position 1 or position 40 antibodies. Background: ELISA stands for enzyme-linked immunosorbent assay.

As to mAB anti-HA 11 (BABCO) (antibody), the peptide concentration at which the ELISA signal approached saturation came out at 10 ng/mL.
